Earlier results on 2 substances are cited in publication PMC3865722.

Where two headings read alike, the source gives them in different places.

Data set [1] deals with SRSF1 (Homo sapiens) (UniProt Q07955).
The target is the same in data set [2]. The source holds these as a separate data set.

Sequence of SRSF1 (Homo sapiens) (Q07955 2-248): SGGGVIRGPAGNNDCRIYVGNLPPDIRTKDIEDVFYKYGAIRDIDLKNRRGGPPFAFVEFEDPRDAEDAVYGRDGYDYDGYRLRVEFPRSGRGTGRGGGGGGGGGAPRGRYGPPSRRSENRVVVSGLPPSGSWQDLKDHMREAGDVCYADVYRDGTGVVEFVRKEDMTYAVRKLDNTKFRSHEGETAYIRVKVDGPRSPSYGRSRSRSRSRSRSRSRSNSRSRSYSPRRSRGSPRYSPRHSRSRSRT
Sequence of CLK1 (P49759 whole entry): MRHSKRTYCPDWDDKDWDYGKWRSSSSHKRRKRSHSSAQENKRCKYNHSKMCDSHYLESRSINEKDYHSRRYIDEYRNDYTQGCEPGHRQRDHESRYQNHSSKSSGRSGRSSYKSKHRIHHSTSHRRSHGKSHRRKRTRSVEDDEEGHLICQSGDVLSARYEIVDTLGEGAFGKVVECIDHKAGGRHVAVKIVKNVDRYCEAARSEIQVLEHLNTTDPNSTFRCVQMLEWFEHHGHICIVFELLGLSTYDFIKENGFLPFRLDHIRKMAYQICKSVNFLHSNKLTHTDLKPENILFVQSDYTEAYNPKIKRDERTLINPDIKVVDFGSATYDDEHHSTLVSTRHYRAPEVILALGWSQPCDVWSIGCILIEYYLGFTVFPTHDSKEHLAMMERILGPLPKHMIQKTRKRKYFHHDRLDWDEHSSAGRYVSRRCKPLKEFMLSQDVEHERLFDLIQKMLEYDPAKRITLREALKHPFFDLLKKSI

The Kd is the free concentration of one partner at which half of the binding sites on the other are occupied at equilibrium, for simple one-to-one binding. Take CLK1 (from UniProt P49759): the Kd with SRSF1 (Homo sapiens) [1] was under 0.1 µM. With SRPK1 (from UniProt Q96SB4), the Kd in the data set with SRSF1 (Homo sapiens) [2] was under 0.1 µM.
